Experimental data: patent publication US20180017550

Legend:
[1] = biological target: human protein kinase A catalytic subunit alpha, cell-free expressed with C-terminal HSV epitope tag and polyhistidine tag (UniProt P17612)
[2] = biological target: human p53 oncoprotein (cellular tumor antigen p53), cell-free expressed from pETBlue-2 with C-terminal HSV epitope tag and polyhistidine tag (UniProt P04637)
[3] = test system: Human casein kinase II (CK), cell-free expressed with C-terminal HSV epitope tag and polyhistidine tag
[4] = biological target: human MDM2 (ubiquitin-protein ligase E3 MDM2), cell-free expressed with C-terminal HSV epitope tag and polyhistidine tag (UniProt Q00987)

Question: For “human recombinant Src pp60 tyrosine kinase (Invitrogen Corporation)”, which “phosphorylation of photo-transferred protein on microarray, anti-phosphotyrosine (RC20) detection” value (from here on “phosphorylation”) [1] is on record?
Answer: significant phosphorylation of CK and PKA

Question: And the “phosphorylation” value [2]?
Answer: p53 is not phosphorylated by either kinase

Question: And the “phosphorylation” value [3]?
Answer: significant phosphorylation of CK and PKA

Question: What about the “phosphorylation” value [4] of the same substance?
Answer: Both kinases heavily phosphorylate the MDM protein
